Reference: patent US20240174764A1 (Memorial Sloan Kettering, published 2024)

Tests used:
[1] = biological target: T1, BTM protein (synthetic fusion protein of the highly conserved extracellular portion of MUC16^c57-114 fused to … (human, UniProt Q8WXI7 14394-14451)); experiment: SPR, BiaCore X100, His-tagged EXT170-8 BiTEDs immobilised on an NTA sensor chip, MUC16 BTM protein injected at 35.625 to 570 nM, 1:1 binding model [d]
T1 construct: domain: highly conserved extracellular portion of MUC16^c57-114; also called MUC16 BTM protein; Muc16 BTM protein; not shown: human Fc (pFUSE backbone)
T1 sequence: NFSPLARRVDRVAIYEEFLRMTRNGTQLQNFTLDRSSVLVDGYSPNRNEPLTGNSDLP
Procedure: (§1) Kinetic Analysis of BiTEDs binding to MUC16^ecto. The kinetic analysis of EXT170-8 BiTEDs and Muc16 BTM protein (55mer highly conserved ectodomain region of MUC16) was performed on a BiaCore X100 instrument loaded with an NTA sensor chip. EXT170-8 BiTED comprises the amino acid of SEQ ID NO: 89 and the leader sequence of SEQ ID NO: 93.
(§2) The raw data was analyzed using the kinetic model 1:1 binding by Biacore X100 evaluation software.

[2] = biological target: T1, BTM protein (synthetic fusion protein …); experiment: SPR (BiaCore X100), His-tagged BiTED on NTA chip, BTM as analyte, 1:1 model
Procedure: as §1, §2
MUC16^ecto-BiTEDs were purified and confirmed by SDS-page (FIG. 1(c)). To determine the binding affinity of BiTEDs to MUC16^ecto, a previously validated BTM protein (a synthetic fusion protein consisting of the highly conserved extracellular portion of MUC16^c57-114 fused to a human Fc backbone pFUSE) was used, and kinetic analysis was performed using surface plasmon resonance.

koff [1]: 0.0157 s⁻¹
kon [1]: 224000 M⁻¹ s⁻¹
Kd [2]: 69.9 nM
B1: EXT170-8 BiTED (MUC16^ecto-specific Bispecific T-cell engaging diabody, Clone 8 (LH)/anti-CD3 bispecific antibody) (bispecific antibody)
chain: DIQLTQSPSAVSASVGDRVTITCRASQDVSKWLAWYQQKPGKAPRLLISAASGLQSWVPSRFSGSGSGTEFTLSISSLQPEDFATYYCQQANSFPWTFGQGTKVEIKRSRGGGGSGGGGSGGGGSLEMAQVQLQQWGAGLLKPSETLSLTCAVYGGSFSGYYWSWIRQPPGKGLEWIGEINHSGSTNYNPSLKSRVTISVDTSKNQFSLKLSSVTAADTAVYYCARQSYITDSWGQGTLVTVSSTSGGGGSDVQLVQSGAEVKKPGASVKVSCKASGYTFTRYTMHWVRQAPGQGLEWIGYINPSRGYTNYADSVKGRFTITTDKSTSTAYMELSSLRSEDTATYYCARYYDDHYCLDYWGQGTTVTVSSGEGTSTGSGGSGGSGGADDIVLTQSPATLSLSPGERATLSCRASQSVSYMNWYQQKPGKAPKRWIYDTSKVASGVPARFSGSGSGTDYSLTINSLEAEDAATYYCQQWSSNPLTFGGGTKVEIKHHHHHH
notes: The molecule was His-tagged in SPR and biotinylated in ELISA; also called MUC16^ecto-BiTEDs; EXT170-8 BiTEDs
